In the DeepSol protein solubility set:

Assay: soluble on expression in E. coli; label from the status in PepcDB or PDB records

Sequence	soluble on expression in E. coli
MGSDKIHHHHHHMDNPVMSAITSLYPQVQFLQRQAASLLLYQSVLQTDVGIAFQELLQAIRYADADARGSLQAYGNYFHALATRKQNWEDYLVSQILIAENPFSKVTQQQDFKDLPPALISAVKHDLQVLQSLYECNSAVLSQWVQAVAHLPISPVVWYLEQDDMGSETALSLHHLEHWADAVEELATHYQKFGIGLFAQYRALRWQDGEFVGIPYPDPVKLGTLVGYESQQEALLKNTEFLLSGEKALHVLLYGSRGAGKSSLVKALLNEYSHRQLRLLEVSKADLKDLPKIVEQLRGVPQKFIIFVDDLSFEEDDDAFKALKVVLEGNLTARPHNVVVYATSNRRHLIREFFADRPSLKNNEEVHAGDTMQEKLSFSDRFGLTLTFESADQSTYLKIVRHLATQAGISISPEELEYQALQWATRHNGRSGRTAQQFIDFLKADTSVFATNNSILDTQS	not soluble
MNTSILAPPESLLEAQKVRLAIREGYDRPTAGMANGLTQVNMISVPQDWAYDFLLYTQRNPQSCPVLDVIDAGQFQSRLIQDKQHDIRTDFPRYRIWEYGQCVDEVNDATSIWNNHPDLVTFLIGCSFSFESALLNAGIEVRHITDQRNVPMYLSNIPCASAGRISGNMVVSMRPIPAAQVSQAVQITAKMPRVHGAPVHIGDPKSLGIADLSKPDFGDFPRILDGEIPVFWACGVTPQAAVMRSKVPFAISHAPGYMLITDVPDQAWMLLEHHHHHH	not soluble
EITPLIFQKQTTEPVENLRTYTALEMEGRDIYIREGCNVCHSQMIRPFRAETERYGHYSVAGESVWEHPFLWGSKRTGPDLARVGQRYSDEWHRVHLINPRDVVPESNMPGFPWLEENVLDGELTSKKIAIFRDNFGVPYTEEDVKNASEEVKGKTEMDALIAYLQSLGH	not soluble
MGSDKIHHHHHHMNQSLRPDKAALVELFRDFIEPQYVINDEETQKPFECDGLSVYCDMPLITVLPKTVEQVCEVMRICYRYQIPVVARGAGTGLCAGAMPNPDGVLLVLSRFKHILDIDPLARSARLQPGVRNLAISEAASPYGLYYGPDPSSQIACSIGGNVAENSGGVHCLKYGLTTHNLLKIEMVTVEGELITIGSEGLDSNGFDLMALITGSEGLLGVITEVTVKLLPSPEKAQVIMAGFDNVQTAGDAVGGVIAKGIIPAGLEMMDSPAIIAAEAFAHAGYPTDAQALLLCELDGSEAEVQEQIAEVEQLFIELGATTTRVSQSEAERALLWKGRKSAFPAVGRISPDYYCMDGTIPRSQLAHVLTEMQKLSEQYGLRVANVFHAGDGNLHPLILFDANVPGELERTEEFGSRILELCVKVGGCITGEHGVGVEKIRQMTIQFNDQELTQFHAIKHAFDPIGTLNPGKGIPVLKRCQEYRTLDRPQHKHDSQPQQGDLA	not soluble
RMASVWQRLGFYASLLKRQLNGGPDVIKWERRVIPGCTRSIYSATGKWTKEYTLQTRKDVEKWWHQRIKEQASKISEADKSKPKFYVLSMFPYPSGKLHMGHVRVYTISDTIARFQKMRGMQVINPMGWDAFGLPAENAAVERNLHPQSWTQSNIKHMRKQLDRLGLCFSWDREITTCLPDYYKWTQYLFIKLYEAGLAYQKEALVNWDPVDQTVLANEQVDEHGCSWRSGAKVEQKYLRQWFIKTTAYAKAMQDALADLPEWYGIKGMQAHWIGDCVGCHLDFTLKVHGQATGEKLTAYTATPEAIYGTSHVAISPSHRLLHGHSSLKEALRMALVPGKDCLTPVMAVNMLTQQEVPVVILAKADLEGSLDSKIGIPSTSSEDTILAQTLGLAYSEVIETLPDGTERLSSSAEFTGMTRQDAFLALTQKARGKRVGGDVTSDKLKDWLISRQRYWGTPIPIVHCPVCGPTPVPLEDLPVTLPNIASFTGKGGPPLAMASEWVNCSCPRCKGAAKRETDTMDTFVDSAWYYFRYTDPHNPHSPFNTAVADYWMPVDLYIGGKEHAVMHLFYARFFSHFCHDQKMVKHREPFHKLLAQGLIKGQTFRLPSGQYLQREEVDLTGSVPVHAKTKEKLEVTWEKMSKSKHNGVDPEEVVEQYGIDTIRLYILFAAPPEKDILWDVKTDALPGVLRWQQRLWTLTTRFIEARASGKSPQPQLLSNKEKAEARKLWEYKNSVISQVTTHFTEDFSLNSAISQLMGLSNALSQASQSVILHSPEFEDALCALMVMAAPLAPHVTSEIWAGLALVPRKLCAHYTWDASVLLQAWPAVDPEFLQQPEVVQMAVLINNKACGKIPVPQQVARDQDKVHEFVLQSELGVRLLQGRSIKKSFLSPRTALINFLVQD	soluble
MPRTIWSGAISFGLVTVPIHVVSATEDHSVRFHQYHLEDMGRVRVRKYCELEDREVTQDEIGKGYELSKDTVIPVLDEELRELPLPTAKAIEIEAFVPLASIDPMGIGEGYYLQPDGQVAAKPYKLLRQALERSSKVAVAKYAWSGRERLGMLRVREEAIVLHAMRWPDEIRD	not soluble
MAITNIKCVIFDCDGTLVDSERLCCQALVNVFNQHGAELTMEECVSHFKGGKLADILLDTKELMNINVPIDVLEPQYRTEVQKLFVRHLQPMDGAKRLIQFLDSHNIEYCVASNGPKDKIEHALELTGLLDAFKGKVFSAFEANSWKPEPDLIMYSAMSMGFLPSDCLYIDDTPKGVEAGLNAGIKTVQLFNGEAINRVDDDRVIRIQHLDELKEQLMGCSV	not soluble
SLSSPLLPAPVCNPNKAIFTVDAKTTEILVANDKACGLLGYSSQDLIGQKLTQFFLRSDSDVVEALSEEHMEADGHAAVVFGTVVDIISRSGEKIPVSVWMKRMRQERRLCCVVVLEPVER	soluble
MQKPVMNPKQRIFIRGLGLPSSYVEAQKKRDEENAKN	not soluble
MNDAVEVELEPVTYHYFNAGAAGKDLNTNETYIGKMLEEKTGVNFKVEHLVGDINQRTGVMIASGDYPDVIVPDAAIDALLDAGAFIPLNDLLEEHGPNLLEAYGDYLHMFTHDDGNIYYIPFGATVNEFQPNPNIDQGAFWIQRGILKEYGFPEINTLDEYLDIITRYAKENPEIDGMRTIPFTGLTYDWRFFAFTNVPNHLAGYPNDGGVMVDMDTHEASVYADSEYAKRWLKALNELNAEGLLDQEMFVMNYDEYLEKLSSGRVLGFFDYGWQFGTASNALRDAGNPDREYMALPVVFDEGIKDQYIDPPAFTGNRGVGITVNAENPERIIQFWDELIKEDNQRLVMWGIEGEHYNVDENGRFYQTEEQIEIVNNQNFRDEFGMTTFEWSWPRINGTFSDGNAVEARRQPEVAFASYNDDDKEYLEAYGISTFAELFSEPDERPWYPAWSANIEQGSPQQIFEERADEILRRHYARIVLADPADFDKEWDDFVQAYRSLDVDAYENFFTEVVQARVRGEWLEHHHHHH	soluble
MGSDKIHHHHHHMATRHDRDGGQTTANLTIATGLDAFTRKEWATLAGTTRSDSDYNPFISHEFLAALEESGCAARRTGWLPQHLRLEDANGSLLGVVPCYLKSHSKGEYVFDYGWADAFERAGGQYYPKLQVSVPFTPVTGPRLLASKDADPDAVRQALAEGLKTLTDRLGVSSLHVTFAPRSETEVLSHAGFLTRTDQQFHFFNEGYGSYEDFLEALASRKRKALKKERRTAVEAGMEIEWLTGRDITEAAWDDFFAFYMDTASRKWGRPYLNRLFFSLIGERMADDILLVMAKRGSRYIAGAINFIGSDALYGRNWGAIEHHPFLHFEVCYHQAIEFAIAKGLKRVEAGAQGEHKLARGYLPVTTYSAHYIAHPGLRRAVADYLSRERREVEAIGDFLTEHSPYKKG	not soluble
GISPNVLNNMKSYMKHSNIRNIIINIMAHELSVINNHIKYINELFYKLDTNHNGSLSHREIYTVLASVGIKKWDINRILQALDINDRGNITYTEFMAGCYRWKNIESTFLKAAFNKIDKDEDGYISKSDIVSLVHDKVLDNNDIDNFFLSVHSIKKGIPREHIINKISFQEFKDYMLSTF	soluble
MAVDVFITAPSSTPLACEMTISKLVLASGSPRRRELLAQMGYQFEVVVPNVEEKRAAAESPAQYVERLSRDKALAGAALVAAEAVVIGSDTIVVKDQQVLEKPRDFADAKRMLLKLSGSQHQVMTGVSVTCRGITHSVVVTTEVWFKTLSEQEIEAYWQSGEPCDKAGSYGIQGLGGRFVTRIEGSYHAVVGLPLYETDQLLHKF	not soluble
MSLEDYILKVEELNYNYSDGTHALKGINMNIKRGEVTAILGGNGVGKSTLFQNFNGILKPSSGRILFDNKPIDYSRKGIMKLRESIGIVFQDPDNQLFSASVYQDVSFGAVNMKLPEDEIRKRVDNALKRTGIEHLKDKPTHCLSFGQKKRVAIAGVLVMEPKVLILDEPTAGLDPMGVSEIMKLLVEMQKELGITIIIATHDIDIVPLYCDNVFVMKEGRVILQGNPKEVFAEKEVIRKVNLRLPRIGHLMEILKEKDGFVFDELDLTIGQARKTINSWKNKIFNEGHHHHHH	soluble
MGSDKIHHHHHHMIKNAVKKIIDMEWFARMMEVLDHRSDNRMTELGMLSQAFEFIKINEVCGDYLEFGLWRGKTFGYAHRMKHRYRRQDMKLWGFDSFQGLPDTGAHPDNIWYKGQFACSRPEFESILKSRGIRSCEYELVEGFYRESLNDATRRRLAGRKAAIVYIDCDLYDSTVEVLDFIQPYLVNGSIVCFDDFYNYKADPEQGEQKALSDFLRKESGICFIPYMAYAPLGKSFICRRT	not soluble
MEQIERIAQLYPVIMRVMGRIRSLVHDGMDLTYNQYKMLLTIYDKGSCPLNLLARELGIAMSSASEMVERLVNLGIVYRAVDEDNRRQVIIYTTDRGEELIRELRHGIIENYRQLFARLPEGDQERLATAFETIADVLGKLE	not soluble
NLAHDTVFEVRNVTSRDRKKVRDISFSVCRGEILGFAGLVGSGRTELMNCLFGVDKRAGGEIRLNGKDISPRSPLDAVKKGMAYITESRRDNGFFPNFSIAQNIAISRSLKDGGYKGAMGLFHEVDEQRTAEAQRELLALKCHSVNQNITELSGGNQQKVLISKWLCCHPEVIIFDEPTRGIDVGAKAEIYKVMRQLADDGKVILMVSSELPEIITVCDRIAVFCEGRLTQILTNRDDMSEEEIMAWALPHE	not soluble
HMTDLKASSLRALKLMDLTTLNDDDTDEKVIALCHQAKTPVGNTAAICIYPRFIPIARKTLKEQGTPEIRIATVTNFPHGNDDIDIALAETRAAIAYGADEVDVVFPYRALMAGNEQVGFDLVKACKEACAAANVLLKVIIETGELKDEALIRKASEISIKAGADFIKTSTGKVAVNATPESARIMMEVIRDMGVEKTVGFKPAGGVRTAEDAQKYLAIADELFGADWADARHYRFGASSLLASLLKALGHGDGKSASSY	soluble
MKTKLDFLKMKESEEPIVMLTAYDYPAAKLAEQAGVDMILVGDSLGMVVLGLDSTVGVTVADMIHHTKAVKRGAPNTFIVTDMPFMSYHLSKEDTLKNAAAIVQESGADALKLEGGEGVFESIRALTLGGIPVVSHLGLTPQSVGVLGGYKVQGKDEQSAKKLIEDSIKCEEAGAMMLVLECVPAELTAKIAETLSIPVIGIGAGVKADGQVLVYHDIIGHGVERTPKFVKQYTRIDETIETAISGYVQDVRHRAFPEQKHSFQMNQTVLDGLYGGKLEHHHHHH	soluble
MVSAPASASSSPASSSFQSFFWQAAARPRAEPKRQALKRITLMTTDKTSPYEIHDDRFRHLIVGNAELEELYSGCRWAEGPVWFADLNCLLFSDIPNERMLRWVPDGGISVFRQPSNFTNGNTRDRQGRLVSCEHGGRRVTRTEVDGSITVLADSYGGKRLNSPNDVVVKSDGSVWFTDPTYGILSDYEGYKAEPEQKTRNVYRLDPATGKIDIAIDDFVQPNGLAFSPDETKLYVADSSYSHDISRPRHIRVFDVVDGVRLANGREFCNLDNGLPDGFRLDTAGNLWTSAGDGVHCFAPDGRLIGKIKVPQTVANLTFGGPKKNRLFITATKSLYSVYVAATGAQTPLEHHHHHH	soluble
PLVKISGSSTVFPITEAVSEDFQAAKKGAIMVTAGIAGTGGGFKKFCRDEVDIVNASRPILSSEMEQCRQNGVQYIEMPIAFDALTVVVNPGNDWIKSMTVAELKKIWEPAAQEKILNWNQVNPAWPNARIKLFGAGADS	not soluble
